Reference: PMC10509265

Target: IP3R-type 2 (UniProt Q9Z329)
Assay: anti-IP3R2 co-IP from heart lysate
Details: reference: wild type heart after TAC; sites S14

Bcl-xL (from UniProt Q64373) S14A knock-in heart after TAC
binding against the reference: stronger
